The subject of experiment [1] is cytosolic calcium concentrations ([Ca^2+]cyt), Col-0^AEQ seedlings. As to the kind of experiment: Calcium influx assay (aequorin seedlings). Format: in vivo, Arabidopsis thaliana. Particulars: wild type, 30 min. The procedure:
Apoaequorin-expressing liquid-grown eight-day-old seedlings were transferred individually to a 96-well plate containing 100 µl of 5 µM coelenterazine-h (PJK Biotech, Germany) and incubated in the dark overnight. Luminescence was measured using a plate reader (Luminoskan Ascent 2.1, Thermo Fisher Scientific, USA). Background luminescence was recorded by scanning each well 12 times at 10 s intervals, before adding a 25 µl elicitor solution to the indicated final concentration. Luminescence was recorded for 30 min at the same interval. The remaining aequorin was discharged using 2 M CaCl2, 20% ethanol. The values for cytosolic Ca^2+ concentrations ([Ca^2+]cyt) were calculated as luminescence counts per second relative to total luminescence counts remaining (L/Lmax).

Experiment [2] concerns the target T1, CEP RECEPTOR 2 ectodomain (CEPR2^ECD) (Arabidopsis thaliana, UniProt Q9C7T7 32-620).
T1 construct: CEPR2, Arabidopsis thaliana, ectodomain, residues 32 to 620; Secreted with a 30 K signal peptide from the modified pFastBAC vector; a TEV site stood before the StrepII-9xHis tag, so residues of the site may be left after cleavage; source: Trichoplusia ni Tnao38 cells, secreted, purified (Ni2+, Strep-Tactin, TEV, SEC); not shown: StrepII, C-terminal, cleaved; His9, C-terminal, cleaved
T1 sequence (looked up): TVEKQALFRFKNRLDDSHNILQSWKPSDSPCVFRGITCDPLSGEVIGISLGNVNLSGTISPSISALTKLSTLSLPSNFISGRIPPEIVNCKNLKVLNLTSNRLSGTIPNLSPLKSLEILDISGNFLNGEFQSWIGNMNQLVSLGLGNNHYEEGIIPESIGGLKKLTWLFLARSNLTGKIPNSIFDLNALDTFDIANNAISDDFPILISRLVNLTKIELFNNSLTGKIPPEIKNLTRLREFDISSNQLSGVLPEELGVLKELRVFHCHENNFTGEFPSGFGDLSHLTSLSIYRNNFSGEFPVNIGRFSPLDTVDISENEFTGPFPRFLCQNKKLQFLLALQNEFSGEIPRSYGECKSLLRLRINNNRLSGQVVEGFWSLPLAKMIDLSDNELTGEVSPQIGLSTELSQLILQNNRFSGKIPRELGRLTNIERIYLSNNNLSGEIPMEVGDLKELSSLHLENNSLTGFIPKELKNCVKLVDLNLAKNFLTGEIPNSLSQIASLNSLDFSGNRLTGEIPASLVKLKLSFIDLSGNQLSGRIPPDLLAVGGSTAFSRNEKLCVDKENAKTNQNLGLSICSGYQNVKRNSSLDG
Nature of the experiment: ITC; 300 μM peptide in the syringe injected into 30 μM receptor ectodomain in the cell; 25 °C; 20 mM citrate pH 5.0, 150 mM NaCl (SEC buffer); N fitted to 1; duplicates. Particulars: both partners purified. A general note: ITC needs no label: the signal is the heat of the interaction.

In experiment [3] the target is T2, RECEPTOR-LIKE KINASE 7 ectodomain (RLK7^ECD) (Arabidopsis thaliana, UniProt F4I2N7 29-608).
T2 construct: RLK7, Arabidopsis thaliana, ectodomain, residues 29 to 608; Secreted with a 30 K signal peptide from the modified pFastBAC vector; a TEV site stood before the StrepII-9xHis tag, so residues of the site may be left after cleavage; source: Trichoplusia ni Tnao38 cells, secreted, purified (Ni2+, Strep-Tactin, TEV, SEC); not shown: StrepII, C-terminal, cleaved; His9, C-terminal, cleaved
T2 sequence (looked up): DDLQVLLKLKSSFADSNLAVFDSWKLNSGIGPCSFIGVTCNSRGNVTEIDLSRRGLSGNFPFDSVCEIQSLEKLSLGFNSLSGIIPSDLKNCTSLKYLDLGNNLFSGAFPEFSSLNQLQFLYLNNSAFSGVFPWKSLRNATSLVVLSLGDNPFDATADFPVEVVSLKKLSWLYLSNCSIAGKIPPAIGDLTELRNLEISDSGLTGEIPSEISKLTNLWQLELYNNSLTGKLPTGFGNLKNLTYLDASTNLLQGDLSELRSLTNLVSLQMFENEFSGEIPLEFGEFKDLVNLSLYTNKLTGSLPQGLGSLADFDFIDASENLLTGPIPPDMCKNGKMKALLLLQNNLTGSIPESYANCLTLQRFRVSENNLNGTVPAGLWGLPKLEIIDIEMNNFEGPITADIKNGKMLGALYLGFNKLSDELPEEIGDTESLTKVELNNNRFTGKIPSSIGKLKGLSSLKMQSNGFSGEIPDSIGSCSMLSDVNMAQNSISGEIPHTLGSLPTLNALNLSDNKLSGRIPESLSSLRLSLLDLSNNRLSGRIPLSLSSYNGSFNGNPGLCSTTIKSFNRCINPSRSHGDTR
The experiment is described as above. Particulars: both partners purified.

Non-standard residues stand in square brackets, D forms with d. No end group written: not given here. Hyp = O=C(O)[C@@H]1C[C@@H](O)CN1

Take “AFR[Hyp]THQG[Hyp]SQGIGH [CEP4-15mer, 15mer peptide lacking the N-terminal D residue]”: the calcium influx entry in experiment [1] is “triggered a dose-dependent calcium influx with no significant differences to the response elicited by the 16mer peptide”.

B1: C-… ENCODED PEPTIDE 1 (CEP1) (peptide, UniProt Q8L8Y3 72-86, looked up)
peptide: DFRPTNPGNSPGVGH
notes: CEP1 peptide, the mature CEP domain cut from the CEP1 precursor, Arabidopsis thaliana; source: synthetic peptide (Pepmic, at least 90% purity)
In turn, B1 registered a Kd in experiment [2] of 9.3 µM.
Regarding RLASG[Hyp]SPRGRGH [PAMP-INDUCED PEPTIDE 1 (PIP1)], in experiment [3], the Kd stood at 0.5 µM.

B2: C-… ENCODED PEPTIDE 4 (CEP4), 16mer (peptide)
peptide: DAFR[Hyp]THQG[Hyp]SQGIGH
notes: CEP4 peptide domain of the CEP4 precursor, Arabidopsis thaliana (AT2G35612); 16mer with N-terminal D and C-terminal H; a 15mer without the N-terminal D is reported only for calcium influx; source: synthetic peptide (Pepmic, at least 90% purity)
On to B2, for which the results for the Kd in experiment [2] and in experiment [3] were 15.7 µM and 9 µM, respectively.

The term Kd denotes the constant that tells how readily two partners part at equilibrium.
